Data as given in US20020147306A1 (published 2002).
No end group written: not given here.

T1: ephrin B1 Val deletion (UniProt P98172 28-346, limits assumed)
T1 construct: whole, on cells; Tested from lysates of transfected Cos-1 cells; also called ephrin B1 Val deletion mutant; ephrin B1 lacking the C-terminal Val
T1 sequence (looked up): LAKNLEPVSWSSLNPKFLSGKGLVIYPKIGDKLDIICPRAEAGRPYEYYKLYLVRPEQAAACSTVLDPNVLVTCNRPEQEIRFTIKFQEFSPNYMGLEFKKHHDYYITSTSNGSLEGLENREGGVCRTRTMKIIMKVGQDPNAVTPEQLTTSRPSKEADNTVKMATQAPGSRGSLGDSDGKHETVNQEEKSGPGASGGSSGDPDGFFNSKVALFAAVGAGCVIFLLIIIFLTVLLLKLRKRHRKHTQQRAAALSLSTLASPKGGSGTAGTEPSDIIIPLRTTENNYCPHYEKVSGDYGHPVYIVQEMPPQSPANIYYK

B1: GST-syntenin fusion protein (full length: residues 1-299) (other, mouse, UniProt O08992 1-299, looked up)
chain: MSLYPSLEDLKVDKVIQAQTAYSANPASQAFVLVDASAALPPDGNLYPKLYPELSQYMGLSLNEAEICESMPMVSGAPAQGQLVARPSSVNYMVAPVTGNDAGIRRAEIKQGIREVILCKDQDGKIGLRLKSIDNGIFVQLVQANSPASLVGLRFGDQVLQINGENCAGWSSDKAHKVLKQAFGEKITMTIRDRPFERTVTMHKDSSGHVGFIFKSGKITSIVKDSSAARNGLLTDHHICEINGQNVIGLKDAQIADILSTAGTVVTITIMPTFIFEHIIKRMAPSIMKSLMDHTIPEV
notes: range 1-299; also called full-length syntenin; GST fusion of full-length syntenin; not shown: glutathione S-transferase (GST) from vector pGEX4T2
B2: syntenin-FLAG (other, mouse, UniProt O08992 1-299, looked up, not shown: small tags and cut ends)
chain: B1 chain
notes: range 1-299; Co-expressed with ephrin B1 in Cos-1 cells
B3: fluorescein-labelled NIYYKV peptide (peptide)
peptide: NIYYKV
modifications: also: 5-(and-6-)carboxyfluorescein label, site not given here
notes: 25 nM probe in fluorescence polarization; also called unphosphorylated peptide probe

How the values were obtained:
[1] = biological target: fluorescein-labelled NIpYYKV peptide; experiment: fluorescence polarization, 25 nM fluorescein-labelled peptide, GST fusion titrated, 22 C
Protocol: (§1) FIGS. 5A and 5B. Fluorescence polarization analysis of GST-FAP-1 PDZ3, GST-FAP-1 PDZ5 and GST-syntenin binding to Fluorescein-labelled peptides corresponding to the C-terminus of ephrin B1. FIG. 5 A, Solutions containing the indicated final concentration of GST-FAP-1 PDZ3 ( ) or GST-FAP-1 PDZ5 ( ) fusion protein in mixtures containing 25 nM fluorescein-labelled NIYYKV peptide probe, 20 mM phosphate pH 7.0, 100 mM NaCl, and 2 mM dithiothreitol (DTT) were monitored for fluorescence polarization at 22° C. The GST-FAP-1 PDZ5 fusion protein was also measured for binding to the phosphorylated peptides, NIpYYKV ( ), NiYpYKV ( ) and NIpYpYKV ( ). […] FIG. 5B, A Binding of a GST fusion of full-length syntenin to the NIYYKV ( ), NIpYYKV ( ), and NIpYpYKV ( ) peptides as measured by fluorescence polarization.
(§2) Binding constant determination and peptide competition studies were carried out using fluorescence polarization on a Beacon 2000 Fluorescence Polarization System (Pan Vera, Wis.) equipped with a 100-μl sample chamber. Fluorescein-labeled probes were prepared through reaction of B ephrin C-terminal peptides with 5-(and-6-)-carboxyfluorescein, succinimidyl ester (Molecular Probes, Oreg.) and purified by reverse-phase HPLC. The authenticity of the fluorescein-labelled peptides were confirmed by mass spectroscopy. In the binding studies, the fluorescein-labelled peptide probe was dissolved in 20 mM phosphate pH 7.0, 100 mM NaCl, and 2 mM DTT to a concentration of 25 nM and a known quantity of GST- fusion protein added. The reaction mixtures were allowed to stand for 10 min at room temperature prior to each measurement. All fluorescence polarization measurements were conducted at 22° C.
(§3) Fluorescence polarization experiments measuring GST-syntenin fusion protein binding to fluorescein-labeled NIYYKV (SEQ. ID. NO. 10) and NIpYYKV (SEQ. ID. NO. 8) peptides yielded nearly identical binding curves (FIG. 5B).

[2] = biological target: fluorescein-labelled NIpYpYKV peptide; experiment: as above
Protocol: as §1, §2, §3

ephrin B1 Val deletion [3] = biological target: T1, ephrin B1 Val deletion; experiment: GST mix with lysates of transfected Cos-1 cells, anti-ephrin B1 immunoblot
Protocol: FIGS. 3A-C. FAP-1 PDZ5 and syntenin bind specifically to ephrin B1 in GST-mixes. Cos-1 cells were transiently transfected with either wild-type ephrin B1 (W. T.) or the ephrin B1 Val deletion (Val Δ) or were untransfected. Cell lysates were incubated with the GST fusion proteins as indicated and analyzed by immunoblotting with anti-ephrin B1 antibody. Immunoprecipitated ephrin B1 or ephrin B1 Val Δ were included as a positive control. FIG. 3A and FIG. 3B, GST-mixes with fusion proteins of FAP-1. C and D, GST-mixes with fusion proteins of syntenin.
(§4) Cos-1 cells were maintained in DMEM supplemented with 10% fetal bovine serum (FBS). Transient transfections were performed using Lipofectin reagent and Opti-MEM medium (Life Technologies Inc.) as outlined by the manufacturer. To reduce phosphorylation of ephrin B1 by binding to endogenously expressed EphB receptors or by stimulation with serum growth factors, transfected cells were transferred from 10 cm to 15 cm plates 24 h after transfection and serum starved in DMEM 0.5% FBS 12 h prior to cell lysis. Transfected cells were rinsed once in PBSA and lysed in PLC lysis buffer (5) with 10 μg/ml aprotonin, 10 μg/ml leupeptin, 1 mM sodium vanadate and 1 mM phenylmethylsulfonyl fluoride added. Immunoprecipitations were performed for 1 h at 4° C. using 1 μg anti-ephrin B1 antibody or 1 μg anti-IL-3 receptor a antibody with protein A-sepharose. […]

ephrin B1 Val deletion [4] = biological target: T1, ephrin B1 Val deletion; experiment: co-immunoprecipitation from co-transfected Cos-1 cells, anti-FLAG blot
Protocol: (§5) FIG. 6. Co-immunoprecipitation of syntenin-FLAG with ephrin B1. Cos-1 cells were co-transfected with either ephrin B1 and syntenin-FLAG or with the ephrin B1 Val deletion and syntenin-FLAG as indicated. Cell lysates were immunoprecipitated with antibodies against ephrin B1 or IL-3 receptor a or were treated with protein A sepharose only. Immunocomplexes were subjected to SDS-PAGE (10%) and blotted with anti-FLAG antibodies.
as §4

protein A sepharose = biological target: T2, protein A sepharose (UniProt P38507 37-477); experiment: precipitation from Cos-1 cells co-transfected with ephrin B1 and syntenin-FLAG, anti-FLAG blot
T2 construct: Bead-only control in the co-immunoprecipitation; also called protein A sepharose alone
Protocol: as §5, §4

[5] = biological target: B1; experiment: fluorescence polarization, 25 nM fluorescein-labelled peptide, GST fusion titrated, 22 C
Protocol: as §1, §2, §3

B1
Kd [1]: 15.4 µM | Kd [2]: 151 µM | binding result (ephrin B1 Val deletion [3]): no binding

B2
binding result (ephrin B1 Val deletion [4]): no binding | binding result (protein A sepharose): no binding

B3
Kd [5]: 17.7 µM
